For test [1], the target named is PfHsp70-x-C (27–679) (P. falciparum). Put plainly: BLI; Octet K2, 25 °C; His-tagged PfHsp70-x-C loaded on Ni-NTA biosensors, ATS as analyte (1.563-6.25 µM); steady-state analysis, 1:1 model. A general note: In BLI a coated tip is dipped into the sample, and binding shifts an interference pattern.
For test [2] the target is unchanged. Put plainly: pull-down; PfHsp70-x-C cross-linked to coupling resin, increasing PFA0660w-C (1.4286-28.5714 µM), with 1 mM ATP; band densities on SDS-PAGE, nonlinear regression.
Test [3] has the same target. As to the kind of experiment: pull-down; PfHsp70-x-C cross-linked to coupling resin, increasing PFA0660w-C (1.4286-28.5714 µM), without ATP; band densities on SDS-PAGE, nonlinear regression.
Test [4] shares this target.
The target of test [5] is PfHsp70-x-S (30–412) (P. falciparum).
For test [6], the target named is PfHsp70-x-C (27–679) (P. falciparum). This is another data set of the same source.
Test [7] addresses PfHsp70-x-S (30–412) (P. falciparum). The source holds these as a separate data set.

This note sets out measurements from PMC6389991.

As to “acidic terminal segment (ATS) domain of PfEMP1 (PF08_0141) (domain or fragment)”, the Kd (usually the free concentration of one partner at which half of the binding sites on the other are occupied at equilibrium, for simple one-to-one binding) in test [1] came out at 180 µM.
Take “PFA0660w-C (81–386) (domain or fragment)”: the dissociation constant (Kd) was 0.781 µM in test [2] and 5.58 µM in test [3]. Besides, the MDH aggregation suppression (absorbance at 360 nm, 48 °C): percent MDH aggregation with PFA0660w-C and PfHsp70-x-C together in test [4] turned out to be 10.7%. This substance had an MDH aggregation suppression (absorbance at 360 nm, 48 °C): percent MDH aggregation with PFA0660w-C and PfHsp70-x-S together in test [5] of 18.2%. For the same substance, in test [6], the beta galactosidase refolding: recovered enzyme activity with PFA0660w-C and PfHsp70-x-C together is 66.7%. Moreover, in test [7], the beta galactosidase refolding: recovered enzyme activity with PFA0660w-C and PfHsp70-x-S together was found to be 34.7%.
